Experimental data published in PMC6743330.

Molecular target: PtmU3 (Streptomyces platensis CB00739)
Assay: SEC

A stoichiometry N of 2 was found for PtmU3 (enzyme) in this work.
